Measured values taken from patent US10947289B2, “Glyco-modified atrial natriuretic peptide” (priority 2013, dated 2021).

assay: Detection of test substance in rat plasma by LC-MS/MS (Test Example 3); type: in vivo; conditions: rat plasma, 100 nmol/kg i.v., LC-MS/MS; time at which the test substance was finally detected
Procedure: Before the administration and 15, 30, 60, 90, 120, 180, and 240 minutes after the administration, blood was sampled (200 μL/sampling) over time from the jugular vein. The blood samples were immediately left on ice.
The collected blood samples were centrifuged at 5000 rpm at 4° C. for 5 minutes by use of a centrifuge (Sigma 4K15, rotor: Nr12130-H). The separated plasma samples were divided into two types (samples for PK measurement and for cGMP measurement) and stored at −80° C. until measurement.
An internal standard (20 μL (500 nM) of a stable isotope of hANP) and an acetic acid mixed solvent (AcOH/distilled water/DMSO=5/3/2, v/v/v) were added to 50 μL of each rat plasma sample prepared in (1) and then mixed therewith. The mixture was transferred to Amicon Ultra-0.5 50K (Millipore Corp., MA) and centrifuged at 14000 rpm at 15° C. for 30 minutes. The obtained filtrate was transferred to Amicon Ultra-0.5 3K (Millipore Corp., MA) and centrifuged again under the aforementioned conditions. The solution remaining on the filter was recovered and transferred to a 96-well deep well plate. The content of the test substance was measured by LC-MS/MS (LC: Shimadzu LC-10ADVP (Shimadzu Corp.), MS/MS: API 4000 QTrap (AB SCIEX)) to calculate the concentration in plasma. The time at which the test substance was finally detected is shown in the rightmost column of Table 2.

For CC[C@H](C)[C@@H]1NC(=O)[C@H](CCCNC(=N)N)NC(=O)[C@H](CC(=O)O)NC(=O)[C@H](CCSC)NC(=O)[C@H](CCCNC(=N)N)NC(=O)CNC(=O)CNC(=O)[C@H](Cc2ccccc2)NC(=O)[C@@H](NC(=O)[C@H](CO)NC(=O)[C@H](CO)NC(=O)[C@H](CCCNC(=N)N)NC(=O)[C@H](CCCNC(=N)N)NC(=O)[C@H](CC(C)C)NC(=O)[C@H](CO)NC(=O)CO[C@@H]2O[C@H](CO)[C@@H](O[C@@H]3O[C@H](CO)[C@@H](O[C@@H]4O[C@H](CO[C@H]5O[C@H](CO)[C@@H](O)[C@H](O)[C@@H]5O[C@@H]5O[C@H](CO)[C@@H](O[C@@H]6O[C@H](CO)[C@H](O)[C@H](O)[C@H]6O)[C@H](O)[C@H]5NC(C)=O)[C@@H](O)[C@H](O[C@H]5O[C@H](CO)[C@@H](O)[C@H](O)[C@@H]5O[C@@H]5O[C@H](CO)[C@@H](O[C@@H]6O[C@H](CO)[C@H](O)[C@H](O)[C@H]6O)[C@H](O)[C@H]5NC(C)=O)[C@@H]4O)[C@H](O)[C@H]3NC(C)=O)[C@H](O)[C@H]2NC(C)=O)CSSC[C@@H](C(=O)N[C@@H](CC(N)=O)C(=O)N[C@@H](CO)C(=O)N[C@@H](Cc2ccccc2)C(=O)N[C@@H](CCCNC(=N)N)C(=O)N[C@@H](Cc2ccc(O)cc2)C(=O)O)NC(=O)CNC(=O)[C@H](CC(C)C)NC(=O)CNC(=O)[C@H](CO)NC(=O)[C@H](CCC(N)=O)NC(=O)[C@H](C)NC(=O)CNC1=O [Compound 2-10, AG(9)-hANP(1-28)], which “Maximum time of detection after administration” value (from here on “Maximum time of detection”) is on record?
Its value is 1.5 h.

With CC[C@H](C)[C@@H]1NC(=O)[C@H](CCCNC(=N)N)NC(=O)[C@H](CC(=O)O)NC(=O)[C@H](CCSC)NC(=O)[C@H](CCCNC(=N)N)NC(=O)CNC(=O)CNC(=O)[C@H](Cc2ccccc2)NC(=O)[C@@H](NC(=O)[C@H](CO)NC(=O)[C@H](CO)NC(=O)[C@H](CCCNC(=N)N)NC(=O)[C@H](CCCNC(=N)N)NC(=O)[C@H](CC(C)C)NC(=O)[C@H](CO)NC(=O)CO[C@@H]2O[C@H](CO)[C@@H](O[C@@H]3O[C@H](CO)[C@@H](O[C@@H]4O[C@H](CO[C@H]5O[C@H](CO)[C@@H](O)[C@H](O)[C@@H]5O[C@@H]5O[C@H](CO)[C@@H](O)[C@H](O)[C@H]5NC(C)=O)[C@@H](O)[C@H](O[C@H]5O[C@H](CO)[C@@H](O)[C@H](O)[C@@H]5O[C@@H]5O[C@H](CO)[C@@H](O)[C@H](O)[C@H]5NC(C)=O)[C@@H]4O)[C@H](O)[C@H]3NC(C)=O)[C@H](O)[C@H]2NC(C)=O)CSSC[C@@H](C(=O)N[C@@H](CC(N)=O)C(=O)N[C@@H](CO)C(=O)N[C@@H](Cc2ccccc2)C(=O)N[C@@H](CCCNC(=N)N)C(=O)N[C@@H](Cc2ccc(O)cc2)C(=O)O)NC(=O)CNC(=O)[C@H](CC(C)C)NC(=O)CNC(=O)[C@H](CO)NC(=O)[C@H](CCC(N)=O)NC(=O)[C@H](C)NC(=O)CNC1=O [Compound 2-11, AG(7)-hANP(1-28)] as the compound, how does the “Maximum time of detection” value read?
Its value is 2 h.

For CC[C@H](C)[C@@H]1NC(=O)[C@H](CCCNC(=N)N)NC(=O)[C@H](CC(=O)O)NC(=O)[C@H](CCSC)NC(=O)[C@H](CCCNC(=N)N)NC(=O)CNC(=O)CNC(=O)[C@H](Cc2ccccc2)NC(=O)[C@@H](NC(=O)[C@H](CO)NC(=O)[C@H](CO)NC(=O)[C@H](CCCNC(=N)N)NC(=O)[C@H](CCCNC(=N)N)NC(=O)[C@H](CC(C)C)NC(=O)[C@H](CO)NC(=O)CCc2cn(CCO[C@@H]3O[C@H](CO)[C@@H](O[C@@H]4O[C@H](CO)[C@@H](O[C@@H]5O[C@H](CO[C@H]6O[C@H](CO)[C@@H](O)[C@H](O)[C@@H]6O[C@@H]6O[C@H](CO)[C@@H](O[C@@H]7O[C@H](CO[C@]8(C(=O)O)C[C@H](O)[C@@H](NC(C)=O)[C@H]([C@H](O)[C@H](O)CO)O8)[C@H](O)[C@H](O)[C@H]7O)[C@H](O)[C@H]6NC(C)=O)[C@@H](O)[C@H](O[C@H]6O[C@H](CO)[C@@H](O)[C@H](O)[C@@H]6O[C@@H]6O[C@H](CO)[C@@H](O[C@@H]7O[C@H](CO[C@]8(C(=O)O)C[C@H](O)[C@@H](NC(C)=O)[C@H]([C@H](O)[C@H](O)CO)O8)[C@H](O)[C@H](O)[C@H]7O)[C@H](O)[C@H]6NC(C)=O)[C@@H]5O)[C@H](O)[C@H]4NC(C)=O)[C@H](O)[C@H]3NC(C)=O)nn2)CSSC[C@@H](C(=O)N[C@@H](CC(N)=O)C(=O)N[C@@H](CO)C(=O)N[C@@H](Cc2ccccc2)C(=O)N[C@@H](CCCNC(=N)N)C(=O)N[C@@H](Cc2ccc(O)cc2)C(=O)O)NC(=O)CNC(=O)[C@H](CC(C)C)NC(=O)CNC(=O)[C@H](CO)NC(=O)[C@H](CCC(N)=O)NC(=O)[C@H](C)NC(=O)CNC1=O [Compound 2-12, SG-triazole-hANP(1-28)], which “Maximum time of detection” value is on record?
Its value is 1.5 h.

For CC[C@H](C)[C@@H]1NC(=O)[C@H](CCCNC(=N)N)NC(=O)[C@H](CC(=O)O)NC(=O)[C@H](CCSC)NC(=O)[C@H](CCCNC(=N)N)NC(=O)CNC(=O)CNC(=O)[C@H](Cc2ccccc2)NC(=O)[C@@H](NC(=O)[C@H](CO)NC(=O)[C@H](CO)NC(=O)[C@H](CCCNC(=N)N)NC(=O)[C@H](CCCNC(=N)N)NC(=O)[C@H](CC(C)C)NC(=O)[C@H](CO)NC(=O)CO[C@@H]2O[C@H](CO)[C@@H](O[C@@H]3O[C@H](CO)[C@@H](O[C@@H]4O[C@H](CO[C@H]5O[C@H](CO)[C@@H](O)[C@H](O)[C@@H]5O)[C@@H](O)[C@H](O[C@H]5O[C@H](CO)[C@@H](O)[C@H](O)[C@@H]5O)[C@@H]4O)[C@H](O)[C@H]3NC(C)=O)[C@H](O)[C@H]2NC(C)=O)CSSC[C@@H](C(=O)N[C@@H](CC(N)=O)C(=O)N[C@@H](CO)C(=O)N[C@@H](Cc2ccccc2)C(=O)N[C@@H](CCCNC(=N)N)C(=O)N[C@@H](Cc2ccc(O)cc2)C(=O)O)NC(=O)CNC(=O)[C@H](CC(C)C)NC(=O)CNC(=O)[C@H](CO)NC(=O)[C@H](CCC(N)=O)NC(=O)[C@H](C)NC(=O)CNC1=O [Compound 2-26, AG(5)-hANP(1-28)], which “Maximum time of detection” value is on record?
The value was 2 h.

For CC[C@H](C)[C@@H]1NC(=O)[C@H](CCCNC(=N)N)NC(=O)[C@H](CC(=O)O)NC(=O)[C@H](CCSC)NC(=O)[C@H](CCCNC(=N)N)NC(=O)CNC(=O)CNC(=O)[C@H](Cc2ccccc2)NC(=O)[C@@H](NC(=O)[C@H](CO)NC(=O)[C@H](CO)NC(=O)[C@H](CCCNC(=N)N)NC(=O)[C@H](CCCNC(=N)N)NC(=O)[C@H](CC(C)C)NC(=O)[C@H](CO)NC(=O)CCOCCOCCOCCOCCNC(=O)CO[C@@H]2O[C@H](CO)[C@@H](O[C@@H]3O[C@H](CO)[C@@H](O[C@@H]4O[C@H](CO[C@H]5O[C@H](CO)[C@@H](O)[C@H](O)[C@@H]5O[C@@H]5O[C@H](CO)[C@@H](O[C@@H]6O[C@H](CO[C@]7(C(=O)O)C[C@H](O)[C@@H](NC(C)=O)[C@H]([C@H](O)[C@H](O)CO)O7)[C@H](O)[C@H](O)[C@H]6O)[C@H](O)[C@H]5NC(C)=O)[C@@H](O)[C@H](O[C@H]5O[C@H](CO)[C@@H](O)[C@H](O)[C@@H]5O[C@@H]5O[C@H](CO)[C@@H](O[C@@H]6O[C@H](CO[C@]7(C(=O)O)C[C@H](O)[C@@H](NC(C)=O)[C@H]([C@H](O)[C@H](O)CO)O7)[C@H](O)[C@H](O)[C@H]6O)[C@H](O)[C@H]5NC(C)=O)[C@@H]4O)[C@H](O)[C@H]3NC(C)=O)[C@H](O)[C@H]2NC(C)=O)CSSC[C@@H](C(=O)N[C@@H](CC(N)=O)C(=O)N[C@@H](CO)C(=O)N[C@@H](Cc2ccccc2)C(=O)N[C@@H](CCCNC(=N)N)C(=O)N[C@@H](Cc2ccc(O)cc2)C(=O)O)NC(=O)CNC(=O)[C@H](CC(C)C)NC(=O)CNC(=O)[C@H](CO)NC(=O)[C@H](CCC(N)=O)NC(=O)[C@H](C)NC(=O)CNC1=O [Compound 2-29, SG-PEG(3)-hANP(1-28)], which “Maximum time of detection” value is on record?
The value was 2 h.

Which “Maximum time of detection” value does the source give for CC[C@H](C)[C@@H]1NC(=O)[C@H](CCCNC(=N)N)NC(=O)[C@H](CC(=O)O)NC(=O)[C@H](CCSC)NC(=O)[C@H](CCCNC(=N)N)NC(=O)CNC(=O)CNC(=O)[C@H](Cc2ccccc2)NC(=O)[C@@H](NC(=O)[C@H](CO)NC(=O)[C@H](CO)NC(=O)[C@H](CCCNC(=N)N)NC(=O)[C@H](CCCNC(=N)N)NC(=O)[C@H](CC(C)C)NC(=O)[C@H](CO)NC(=O)CCOCCOCCOCCOCCOCCOCCOCCOCCOCCOCCOCCOCCNC(=O)CO[C@@H]2O[C@H](CO)[C@@H](O[C@@H]3O[C@H](CO)[C@@H](O[C@@H]4O[C@H](CO[C@H]5O[C@H](CO)[C@@H](O)[C@H](O)[C@@H]5O[C@@H]5O[C@H](CO)[C@@H](O[C@@H]6O[C@H](CO[C@]7(C(=O)O)C[C@H](O)[C@@H](NC(C)=O)[C@H]([C@H](O)[C@H](O)CO)O7)[C@H](O)[C@H](O)[C@H]6O)[C@H](O)[C@H]5NC(C)=O)[C@@H](O)[C@H](O[C@H]5O[C@H](CO)[C@@H](O)[C@H](O)[C@@H]5O[C@@H]5O[C@H](CO)[C@@H](O[C@@H]6O[C@H](CO[C@]7(C(=O)O)C[C@H](O)[C@@H](NC(C)=O)[C@H]([C@H](O)[C@H](O)CO)O7)[C@H](O)[C@H](O)[C@H]6O)[C@H](O)[C@H]5NC(C)=O)[C@@H]4O)[C@H](O)[C@H]3NC(C)=O)[C@H](O)[C@H]2NC(C)=O)CSSC[C@@H](C(=O)N[C@@H](CC(N)=O)C(=O)N[C@@H](CO)C(=O)N[C@@H](Cc2ccccc2)C(=O)N[C@@H](CCCNC(=N)N)C(=O)N[C@@H](Cc2ccc(O)cc2)C(=O)O)NC(=O)CNC(=O)[C@H](CC(C)C)NC(=O)CNC(=O)[C@H](CO)NC(=O)[C@H](CCC(N)=O)NC(=O)[C@H](C)NC(=O)CNC1=O [Compound 2-30, SG-PEG(11)-hANP(1-28)] here?
The value was 4 h.
